Data: patent US20260265358A1 (BYOMASS, published 2026)
“And” between values parts separate entries of the source, which are not always exact repeats. Equal values may be shown once. Values belong to the binder of their own block, whether it stands above or below them.

Columns and labels:
[1] = target: T1, Human Activin A Fc (human, UniProt P03970 309-424 (pig entry)); assay: KD with 0.1% HSA, method not stated
T1 construct: also called human Activin A-Fc fusion; human Activin A-Fc antigen; not shown: Fc part
T1 sequence: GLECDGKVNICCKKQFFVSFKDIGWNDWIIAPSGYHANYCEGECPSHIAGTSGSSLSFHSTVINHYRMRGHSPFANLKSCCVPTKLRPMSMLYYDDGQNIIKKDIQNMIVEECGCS

[2] = target: T2, Human GDF-11 Fc (human, UniProt O95390 299-407, limits assumed); assay: KD with 0.1% HSA, method not stated
T2 construct: not shown: Fc part
T2 sequence (O95390 299-407 limits assumed): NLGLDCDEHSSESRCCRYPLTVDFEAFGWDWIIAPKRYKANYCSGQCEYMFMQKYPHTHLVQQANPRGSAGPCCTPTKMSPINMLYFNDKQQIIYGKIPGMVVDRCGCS

[3] = target: T3, Human Activin B Fc (human, UniProt P09529 293-407, limits assumed); assay: KD with 0.1% HSA, method not stated
T3 construct: not shown: Fc part
T3 sequence (looked up): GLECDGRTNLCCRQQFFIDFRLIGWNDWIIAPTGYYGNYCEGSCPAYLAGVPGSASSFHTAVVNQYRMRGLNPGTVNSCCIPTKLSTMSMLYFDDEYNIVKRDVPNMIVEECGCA

[4] = target: T1, Human Activin A Fc; assay: KD with 0.1% BSA, method not stated; with 0.1% BSA
[5] = target: Human GDF8 (human, UniProt O14793 267-375); assay: Octet BLI, IgG, avid
[6] = target: T4, BMP9 (UniProt Q9UK05 320-429); assay: Octet BLI, IgG, avid
T4 sequence (looked up): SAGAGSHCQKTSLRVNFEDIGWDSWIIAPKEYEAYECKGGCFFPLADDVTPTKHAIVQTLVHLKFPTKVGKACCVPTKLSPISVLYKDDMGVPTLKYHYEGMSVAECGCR

[7] = target: T5, Activin B (UniProt P09529 293-407); assay: Octet BLI, IgG, avid
T5 sequence (looked up): T3 sequence (looked up)

[8] = target: T6, Human GDF10 (human, UniProt P55107 369-478); assay: Octet BLI, IgG, avid
T6 sequence (looked up): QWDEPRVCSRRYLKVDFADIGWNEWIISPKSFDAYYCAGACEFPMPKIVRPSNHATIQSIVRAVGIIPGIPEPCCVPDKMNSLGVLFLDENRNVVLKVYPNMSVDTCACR

[9] = target: Human GDF11 (human, UniProt O95390 299-407); assay: Octet BLI, IgG, avid
Sequence of Human GDF11 (O95390 299-407 limits assumed): as the sequence (O95390 299-407 limits assumed) above

[10] = target: T7, Human GDNF (human, UniProt P39905 78-211); assay: Octet BLI, IgG, avid
T7 sequence (looked up): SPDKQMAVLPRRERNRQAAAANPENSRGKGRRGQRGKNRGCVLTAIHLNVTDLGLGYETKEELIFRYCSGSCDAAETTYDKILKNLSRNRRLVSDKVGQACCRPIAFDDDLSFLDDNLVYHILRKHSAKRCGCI

[11] = target: T8, BMP10 (UniProt O95393 317-424); assay: Octet BLI, IgG, avid
T8 sequence (looked up): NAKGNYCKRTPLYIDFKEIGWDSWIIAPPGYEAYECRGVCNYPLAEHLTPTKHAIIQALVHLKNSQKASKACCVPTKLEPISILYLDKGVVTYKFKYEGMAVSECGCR

[12] = target: T9, GDF15 Fc (UniProt Q99988 197-308, limits assumed); assay: Octet BLI, IgG, avid
T9 construct: not shown: Fc part
T9 sequence (looked up): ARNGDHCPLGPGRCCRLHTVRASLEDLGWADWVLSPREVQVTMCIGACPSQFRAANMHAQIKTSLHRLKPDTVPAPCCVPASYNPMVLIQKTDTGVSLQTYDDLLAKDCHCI

[13] = target: T1, Human Activin A Fc; assay: KD with 5% HSA, method not stated
[14] = target: T3, Human Activin B Fc; assay: KD with 5% HSA, method not stated
[15] = target: T2, Human GDF-11 Fc; assay: KD with 0.1% BSA, method not stated
[16] = target: T3, Human Activin B Fc; assay: KD with 0.1% BSA, method not stated
[17] = target: T1, Human Activin A Fc; assay: Octet BLI, IgG, avid
Method: ForteBio affinity measurements were performed on an Octet HTX generally as previously described (see, e.g., Estep et al, Mabs 5(2), 270-278 (2013)). Briefly, ForteBio affinity measurements were performed by loading IgGs on-line onto AHC sensors. Sensors were equilibrated off-line in assay buffer for 30 min and then monitored on-line for 60 seconds for baseline establishment. Sensors with loaded IgGs were exposed to 100 nM antigen for 3 minutes, and afterwards were transferred to assay buffer for 3 min for off-rate measurement. All kinetics were analyzed using the 1:1 binding model.
Binding affinity and epitope binning assays were performed with a ForteBio instrument as described herein.

[18] = target: T10, biotinylated Human Activin A (human, UniProt P03970 309-424 (pig entry), biotinylated (EZ-Link Sulfo-NHS-Biotinylation Kit)); assay: SPR (Biacore 8K), antigen captured, Fab analyte
T10 sequence: T1 sequence
Method: (§1) Kinetic analysis was conducted at 25° C. in HBS-EP+ running buffer (10 mM HEPES pH 7.4, 150 mM NaCl, 3 mM EDTA, 0.05% Surfactant P20) using a Biacore 8K optical biosensor (Cytiva, Marlborough, MA). The sample compartment was maintained at 10° C. for the duration of the experiment. The Biacore 8K can analyze up to 8 separate interactions in a single cycle.
(§2) Each experiment cycle began with an injection (300 s at 2 μL/min) overflow cells 1 and 2 of a 1:100 solution of biotin CAPture reagent (Cytiva) in running buffer. This was followed by an injection (45 s at 10.0 μL/min) of biotinylated human ACTIVIN A (5 nM) overflow cell 2. Upon capture of ACTIVIN A to the sensor surface, a single concentration of Fab ranging from 0.111-81.0 nM was injected (300 s at 30 μL/min) overflow cells 1 and 2. The dissociation of the antibodies were monitored for 3420 s. Finally, an injection (120 s at 10 μL/min) of regeneration solution (6 M Guanidine-HCl in 0.25 M NaOH) overflow cells 1 and 2 prepared the sensor surface for another cycle. Several blank buffer samples were injected (300 s at 30 μL/min) overflow cells 1 and 2 throughout the duration of the experiment and used for reference surface subtraction—each were monitored for the same amount of dissociation time (3420 s) and regenerated under the same conditions as those for the Fab sample injections.
(§3) The anti-Activin antibodies identified in Example 1 were characterized. First, binding kinetics of the anti-Activin antibodies was assessed with a Surface Plasmon Resonance assay (Biacore).

[19] = target: T10, biotinylated Human Activin A; assay: SPR (Biacore 8K), antigen captured, Fab analyte; second, unlabelled row under Clone B (Rmax 38.1)
Method: as §1
as §2, with “Finally, an injection (120 s at 10 μL/min) of regeneration solution (6 M Guanidine-HCl in 0.25 M NaOH) overflow cells 1 and 2 prepared the sensor surface for another cycle.” left out
as §3

[20] = target: T1, Human Activin A Fc; assay: Octet BLI, Fab, monovalent

- Kd [1]: 0.138 nM
- Kd [2]: 18.3 nM
- Kd [3]: 2.96 nM
- Kd [4]: 0.138 nM
- binding result [5]: no binding (tested: 100 nM antigen)
- binding result [6]: no binding (tested: 100 nM antigen)
- Kd [7]: 46.8 nM
- binding result [8]: no binding (tested: 100 nM antigen)
- Kd [9]: 21 nM
- binding result [10]: no binding (tested: 100 nM antigen)
- binding result [11]: no binding (tested: 100 nM antigen)
- binding result [12]: no binding (tested: 100 nM antigen)
- Kd [13]: 0.217 nM
- Kd [14]: 10 nM
- Kd [15]: 18.9 nM
- Kd [16]: 3.37 nM
- Kd [17]: 0.527 nM
B1: anti-Activin A antibody Clone B (IgG) (antibody, V domains shown)
VH: QVQLVQSGAEVKKPGASVKVSCKASGYTFIGYDMHWVRQAPGQGLEWMGVINPSSGGTNYAQKFQGRVTMTRDTSISTAYMELSRLRSDDTAVYYCARARDIAALGLGAFDYWGQGTLVTVSS
VL: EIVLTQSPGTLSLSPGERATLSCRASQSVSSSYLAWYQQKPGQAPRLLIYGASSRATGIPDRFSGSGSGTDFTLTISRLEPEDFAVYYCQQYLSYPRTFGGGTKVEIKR
notes: IgG format; also called Antibody B

- Kd [18]: 0.00981 nM
- koff [18]: 2.27e-05 s⁻¹ and 1.58e-05 s⁻¹
- kon [18]: 2.31e+06 M⁻¹ s⁻¹ and 2.56e+06 M⁻¹ s⁻¹
- Kd [19]: 0.00617 nM
- Kd [20]: 0.309 nM
B2: Fab of anti-Activin A antibody Clone B (Fab, V domains shown)
VH: B1 VH
VL: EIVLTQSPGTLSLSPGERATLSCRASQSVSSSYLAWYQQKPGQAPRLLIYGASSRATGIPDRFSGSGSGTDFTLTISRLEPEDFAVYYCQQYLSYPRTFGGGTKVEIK
notes: Fab format; only VH and VL are tied to the clone; also called Fab of Clone B
